# Test results as given in PMC9157410.
# Target: recombinant TpiA (triosephosphate isomerase of Streptococcus pneumoniae D39) (S. pneumoniae D39) (UniProt P66943)
# Assay: SPR; Biacore X100; rTpiA amine-coupled on a CM5 chip; plasminogen, laminin and BSA injected at 3.125 to 50 nM, contact time 120 s, 20 µL/min; 100 mM HEPES pH 7.4, 150 mM NaCl, 3 mM EDTA, 0.005% surfactant P20; apparent constants
# Sequence of UniProt P66943 (P66943 2-252): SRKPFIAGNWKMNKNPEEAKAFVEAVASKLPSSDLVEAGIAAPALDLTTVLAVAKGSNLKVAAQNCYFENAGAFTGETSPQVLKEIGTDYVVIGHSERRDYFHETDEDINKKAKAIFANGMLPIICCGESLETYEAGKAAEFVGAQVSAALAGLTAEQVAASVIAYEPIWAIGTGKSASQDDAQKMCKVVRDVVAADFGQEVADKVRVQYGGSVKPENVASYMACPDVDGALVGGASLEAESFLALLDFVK
substance,measurement,value
plasminogen from human plasma (natural protein),Kd,411 nM
same,koff,0.00553 s⁻¹
same,kon,13400 M⁻¹ s⁻¹
